Molecular target: epidermal growth factor (EGF) receptor expressed in 32D mouse myeloid cells (32D/EGFR) (UniProt P00533)

EC50 of AR for IL3-independent proliferation of 32D/EGFR cells, without EGF: 8.3 nM
B1: amphiregulin (ligand)
chain: SVRVEQVVKPPQNKTESENTSDKPKRKKKGGKNGKNRRNRKKKNPCNAEFQNFCIHGECKYIEHLEAVTCKCQQEYFGERCGEKSMK

Reference: publication PMC3962550
